Tested on: peptide library, one residue held at a place counted from the Y acceptor
Experiment: relative phosphorylation of the sub-library (ratio to the mean residue at this position); higher = residue favoured
How it was run: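 Every value reflects phosphorylation relative to the mean randomized residue. The sum of the 18 randomized residues, or 16 in the Ser/Thr-free library, served to normalize intensities at each position, which were then multiplied by that number. Intensities came from phosphorimaging with ImageQuant of biotinylated Tyr-centred peptides captured on streptavidin membranes after 90 min with purified recombinant kinases and 50 μM ATP plus γ-32P-ATP.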

Sequence of LIMK1, construct: aa285-end, human (P53667 285-647, looked up): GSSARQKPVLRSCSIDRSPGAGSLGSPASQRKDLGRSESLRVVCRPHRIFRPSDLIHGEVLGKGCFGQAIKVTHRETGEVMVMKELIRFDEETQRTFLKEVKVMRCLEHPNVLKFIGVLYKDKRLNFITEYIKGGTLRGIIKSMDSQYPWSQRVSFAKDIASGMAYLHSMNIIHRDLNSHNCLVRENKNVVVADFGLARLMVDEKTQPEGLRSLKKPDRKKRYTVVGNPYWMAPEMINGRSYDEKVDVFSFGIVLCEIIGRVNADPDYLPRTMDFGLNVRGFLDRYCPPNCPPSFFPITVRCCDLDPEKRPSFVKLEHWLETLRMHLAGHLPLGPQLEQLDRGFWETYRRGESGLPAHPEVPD

LIMK1, construct: aa285-end, human (from UniProt P53667)
relative phosphorylation
Details	at +1	at +2	at +3	at +4	at +5	at -1	at -2	at -3	at -4	at -5
A fixed	0.862	0.869	0.944	1.08	0.821	0.957	0.937	0.905	1.05	0.934
D fixed	0.776	0.662	0.6	0.613	0.56	0.811	0.735	0.778	0.812	0.737
E fixed	0.728	0.669	0.66	0.544	0.532	0.672	0.689	0.68	0.763	0.813
F fixed	0.879	1.2	1.21	1.23	1.18	0.849	1.08	1.21	1.02	1.1
G fixed	1.22	0.739	0.954	0.989	0.991	1.31	1.02	1.04	1.08	1.02
H fixed	1.06	1.07	1.11	1.1	1.06	1.06	1.02	0.955	0.953	1.09
I fixed	0.769	0.852	0.813	0.902	0.748	0.753	0.853	0.667	0.769	0.946
K fixed	1.35	1.49	1.4	1.37	1.46	1.28	1.33	1.16	1.3	1.14
L fixed	0.738	0.856	0.829	1	0.825	0.782	0.822	0.865	0.833	0.876
M fixed	0.802	0.926	0.996	0.973	0.836	0.793	0.833	0.801	0.837	0.843
N fixed	1.09	0.92	0.945	0.797	0.838	1.01	1.26	1.29	0.885	0.902
P fixed	1.11	0.849	0.97	0.87	0.89	1.12	1.09	1.02	1.06	0.935
Q fixed	0.961	0.921	0.865	0.74	0.849	0.888	0.846	1.13	1	0.858
R fixed	1.6	1.63	1.39	1.24	1.43	1.53	1.31	1.42	1.41	1.34
V fixed	0.713	0.979	0.782	0.907	0.754	0.81	0.86	0.819	0.807	0.837
W fixed	1.34	1.37	1.54	1.64	2.22	1.38	1.31	1.26	1.42	1.62
pThr fixed	0.753	0.513	0.519	0.596	0.409	0.704	0.664	0.635	0.96	0.703
pTyr fixed	0.761	0.655	0.689	0.61	0.518	1.61	0.887	1.34	0.667	0.744

From the supplement of paper PMC11136658
